Results: the supplement of paper PMC10065799, “High-throughput profiling of sequence recognition by tyrosine kinases and SH2 domains using bacterial peptide display” (eLife, 2023)

Each sequence was assayed against EPHB2 (UniProt P29323) (assay: phosphorylation enrichment, bacterial display (enrichment ratio); higher = better substrate or ligand; peptides without Tyr show the background).
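Also: 11-residue human phosphosite peptides and single-mutation variants displayed on the E. coli surface, counted by deep sequencing, each peptide's frequency after selection divided by its frequency in the unselected input library; frequency after pTyr selection over input frequency; kinase dosed for 20-30% of maximal phosphorylation in three min.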

EPHB2, sequence (P29323 whole entry, looked up): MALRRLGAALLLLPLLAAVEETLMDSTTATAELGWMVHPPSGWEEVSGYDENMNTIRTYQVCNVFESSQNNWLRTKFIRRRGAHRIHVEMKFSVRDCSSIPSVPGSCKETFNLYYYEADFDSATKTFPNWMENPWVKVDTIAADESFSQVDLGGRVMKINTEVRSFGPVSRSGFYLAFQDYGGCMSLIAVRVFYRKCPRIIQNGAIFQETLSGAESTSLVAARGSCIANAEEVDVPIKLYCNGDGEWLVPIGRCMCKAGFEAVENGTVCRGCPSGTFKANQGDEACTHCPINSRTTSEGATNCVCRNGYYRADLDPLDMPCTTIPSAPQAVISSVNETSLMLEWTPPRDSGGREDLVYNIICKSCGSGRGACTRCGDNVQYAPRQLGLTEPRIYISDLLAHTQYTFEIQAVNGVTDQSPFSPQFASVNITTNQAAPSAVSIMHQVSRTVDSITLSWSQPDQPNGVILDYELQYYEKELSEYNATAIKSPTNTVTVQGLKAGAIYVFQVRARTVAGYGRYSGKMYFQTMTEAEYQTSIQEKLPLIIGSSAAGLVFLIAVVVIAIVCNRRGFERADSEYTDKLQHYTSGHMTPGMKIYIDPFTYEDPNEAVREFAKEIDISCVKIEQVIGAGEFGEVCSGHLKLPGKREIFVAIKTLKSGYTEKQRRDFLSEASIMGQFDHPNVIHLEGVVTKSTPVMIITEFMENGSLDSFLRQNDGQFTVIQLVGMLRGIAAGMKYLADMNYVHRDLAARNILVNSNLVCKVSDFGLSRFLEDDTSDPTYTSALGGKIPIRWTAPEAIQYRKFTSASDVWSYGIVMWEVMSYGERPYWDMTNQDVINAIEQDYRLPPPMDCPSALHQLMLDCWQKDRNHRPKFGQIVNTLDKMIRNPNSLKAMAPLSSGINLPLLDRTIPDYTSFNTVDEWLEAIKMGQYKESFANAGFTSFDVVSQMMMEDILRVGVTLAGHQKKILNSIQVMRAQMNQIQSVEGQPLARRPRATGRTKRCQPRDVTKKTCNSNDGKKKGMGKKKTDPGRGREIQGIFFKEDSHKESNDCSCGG

| Sequence | phosphorylation enrichment |
| --- | --- |
| VSLEAYCKHKY [RXRA_Y403_A398V] | 0.584 |
| ITLPIYTKESE [ANK2_Y1455] | 0.499 |
| ATGLIYIGSHD [AASDH_Y870_T865A] | 0.724 |
| GGMTEYNLVVV [KRAS_Y4_K5N] | 0.552 |
| LRFDSYSSFCN [SLC20A2_Y433_YF] | 0.734 |
| PSRKDYETFQP [CTNND2_Y1154_YF] | 1.52 |
| DLLNSYTENEG [HSPA4L_Y600_I601T] | 0.618 |
| AAQNCYKVTNA [TPI1_Y105_G110A] | 0.455 |
| KKHIPHREHKS [CSNK1G2_Y206_Y206H] | 1.71 |
| SVTCTYTPALN [TP53_Y126_S127T] | 0.639 |
| SILTVYSKDNF [PANK2_Y400_A398T_YF] | 0.514 |
| CDSSGYWTPEE [PAPPA2_Y908] | 0.654 |
| NTYEKYLEEEY [TF_Y669_G671E] | 0.686 |
| EEHIPYTHMNG [INSR_Y1361] | 0.517 |
| ENGPFYTSFPP [GDAP2_Y488_YF] | 2.41 |
| PEYVVYKPQME [CCRL2_Y170_F167Y] | 7.28 |

Each sequence was assayed against Fyn (UniProt P06241) in the same assay as above.
Fyn, sequence (P06241 whole entry, looked up): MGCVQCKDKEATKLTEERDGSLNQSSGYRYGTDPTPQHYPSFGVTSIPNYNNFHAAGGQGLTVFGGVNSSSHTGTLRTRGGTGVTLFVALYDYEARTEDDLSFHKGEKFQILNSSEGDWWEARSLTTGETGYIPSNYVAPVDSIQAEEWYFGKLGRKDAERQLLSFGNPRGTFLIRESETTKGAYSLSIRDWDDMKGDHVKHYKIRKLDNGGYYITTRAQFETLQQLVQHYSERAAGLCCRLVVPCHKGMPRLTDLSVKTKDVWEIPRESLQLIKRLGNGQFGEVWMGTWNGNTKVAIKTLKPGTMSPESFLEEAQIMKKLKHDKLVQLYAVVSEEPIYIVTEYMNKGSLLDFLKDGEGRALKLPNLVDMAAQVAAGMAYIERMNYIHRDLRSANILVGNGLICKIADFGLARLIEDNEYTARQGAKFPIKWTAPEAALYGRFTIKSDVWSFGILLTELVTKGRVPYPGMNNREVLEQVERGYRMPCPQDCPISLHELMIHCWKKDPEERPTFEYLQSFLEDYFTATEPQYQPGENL

| Sequence | phosphorylation enrichment |
| --- | --- |
| VSLEAYCKHKY [RXRA_Y403_A398V] | 0.656 |
| ITLPIYTKESE [ANK2_Y1455] | 0.88 |
| ATGLIYIGSHD [AASDH_Y870_T865A] | 0.427 |
| GGMTEYNLVVV [KRAS_Y4_K5N] | 0.486 |
| LRFDSYSSFCN [SLC20A2_Y433_YF] | 0.464 |
| PSRKDYETFQP [CTNND2_Y1154_YF] | 0.605 |
| DLLNSYTENEG [HSPA4L_Y600_I601T] | 0.614 |
| AAQNCYKVTNA [TPI1_Y105_G110A] | 0.454 |
| KKHIPHREHKS [CSNK1G2_Y206_Y206H] | 1.01 |
| SVTCTYTPALN [TP53_Y126_S127T] | 0.49 |
| SILTVYSKDNF [PANK2_Y400_A398T_YF] | 0.516 |
| CDSSGYWTPEE [PAPPA2_Y908] | 0.454 |
| NTYEKYLEEEY [TF_Y669_G671E] | 0.535 |
| EEHIPYTHMNG [INSR_Y1361] | 0.451 |
| ENGPFYTSFPP [GDAP2_Y488_YF] | 8.74 |
| PEYVVYKPQME [CCRL2_Y170_F167Y] | 9.13 |

What follows are sequences tested against Jak2 (UniProt O60674) in the same assay as above.
Jak2, sequence (O60674 whole entry, looked up): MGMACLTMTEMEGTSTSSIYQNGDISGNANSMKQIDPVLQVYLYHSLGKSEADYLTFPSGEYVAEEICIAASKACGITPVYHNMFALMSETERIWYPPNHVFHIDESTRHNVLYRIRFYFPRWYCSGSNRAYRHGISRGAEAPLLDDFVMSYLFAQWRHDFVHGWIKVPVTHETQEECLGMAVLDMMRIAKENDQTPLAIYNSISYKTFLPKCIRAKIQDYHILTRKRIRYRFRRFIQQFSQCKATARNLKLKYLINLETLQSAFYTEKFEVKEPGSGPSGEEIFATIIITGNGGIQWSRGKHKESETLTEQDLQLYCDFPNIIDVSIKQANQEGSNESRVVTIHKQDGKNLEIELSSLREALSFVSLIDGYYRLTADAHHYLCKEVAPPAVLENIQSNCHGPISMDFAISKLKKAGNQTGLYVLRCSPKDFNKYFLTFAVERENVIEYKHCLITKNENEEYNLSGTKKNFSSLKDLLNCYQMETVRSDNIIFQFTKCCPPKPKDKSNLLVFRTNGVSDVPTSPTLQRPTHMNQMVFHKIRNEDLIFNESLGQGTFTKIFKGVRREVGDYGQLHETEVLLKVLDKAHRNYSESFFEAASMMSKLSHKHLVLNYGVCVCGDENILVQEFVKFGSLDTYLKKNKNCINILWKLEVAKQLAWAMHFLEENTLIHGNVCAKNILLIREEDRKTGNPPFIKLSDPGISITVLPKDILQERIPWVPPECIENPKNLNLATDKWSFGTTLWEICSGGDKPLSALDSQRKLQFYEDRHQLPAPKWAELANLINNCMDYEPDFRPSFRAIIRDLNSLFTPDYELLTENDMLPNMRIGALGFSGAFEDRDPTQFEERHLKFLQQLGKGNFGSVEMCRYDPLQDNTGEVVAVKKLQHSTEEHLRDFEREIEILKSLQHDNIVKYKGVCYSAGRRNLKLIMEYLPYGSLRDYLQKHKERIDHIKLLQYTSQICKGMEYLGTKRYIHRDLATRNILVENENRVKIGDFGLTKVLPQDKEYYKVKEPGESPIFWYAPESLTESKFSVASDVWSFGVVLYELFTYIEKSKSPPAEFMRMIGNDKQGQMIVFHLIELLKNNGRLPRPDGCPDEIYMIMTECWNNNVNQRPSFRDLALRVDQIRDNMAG

| Sequence | phosphorylation enrichment |
| --- | --- |
| VSLEAYCKHKY [RXRA_Y403_A398V] | 1.05 |
| ITLPIYTKESE [ANK2_Y1455] | 1.11 |
| ATGLIYIGSHD [AASDH_Y870_T865A] | 0.809 |
| GGMTEYNLVVV [KRAS_Y4_K5N] | 0.981 |
| LRFDSYSSFCN [SLC20A2_Y433_YF] | 1.37 |
| PSRKDYETFQP [CTNND2_Y1154_YF] | 1.11 |
| DLLNSYTENEG [HSPA4L_Y600_I601T] | 1.16 |
| AAQNCYKVTNA [TPI1_Y105_G110A] | 0.552 |
| KKHIPHREHKS [CSNK1G2_Y206_Y206H] | 5.87 |
| SVTCTYTPALN [TP53_Y126_S127T] | 1.24 |
| SILTVYSKDNF [PANK2_Y400_A398T_YF] | 0.907 |
| CDSSGYWTPEE [PAPPA2_Y908] | 1.22 |
| NTYEKYLEEEY [TF_Y669_G671E] | 1.6 |
| EEHIPYTHMNG [INSR_Y1361] | 0.668 |
| ENGPFYTSFPP [GDAP2_Y488_YF] | 1.61 |
| PEYVVYKPQME [CCRL2_Y170_F167Y] | 5.75 |

Each sequence was assayed against EPHB1 (UniProt P54762) in the same assay as above.
EPHB1, sequence (P54762 whole entry, looked up): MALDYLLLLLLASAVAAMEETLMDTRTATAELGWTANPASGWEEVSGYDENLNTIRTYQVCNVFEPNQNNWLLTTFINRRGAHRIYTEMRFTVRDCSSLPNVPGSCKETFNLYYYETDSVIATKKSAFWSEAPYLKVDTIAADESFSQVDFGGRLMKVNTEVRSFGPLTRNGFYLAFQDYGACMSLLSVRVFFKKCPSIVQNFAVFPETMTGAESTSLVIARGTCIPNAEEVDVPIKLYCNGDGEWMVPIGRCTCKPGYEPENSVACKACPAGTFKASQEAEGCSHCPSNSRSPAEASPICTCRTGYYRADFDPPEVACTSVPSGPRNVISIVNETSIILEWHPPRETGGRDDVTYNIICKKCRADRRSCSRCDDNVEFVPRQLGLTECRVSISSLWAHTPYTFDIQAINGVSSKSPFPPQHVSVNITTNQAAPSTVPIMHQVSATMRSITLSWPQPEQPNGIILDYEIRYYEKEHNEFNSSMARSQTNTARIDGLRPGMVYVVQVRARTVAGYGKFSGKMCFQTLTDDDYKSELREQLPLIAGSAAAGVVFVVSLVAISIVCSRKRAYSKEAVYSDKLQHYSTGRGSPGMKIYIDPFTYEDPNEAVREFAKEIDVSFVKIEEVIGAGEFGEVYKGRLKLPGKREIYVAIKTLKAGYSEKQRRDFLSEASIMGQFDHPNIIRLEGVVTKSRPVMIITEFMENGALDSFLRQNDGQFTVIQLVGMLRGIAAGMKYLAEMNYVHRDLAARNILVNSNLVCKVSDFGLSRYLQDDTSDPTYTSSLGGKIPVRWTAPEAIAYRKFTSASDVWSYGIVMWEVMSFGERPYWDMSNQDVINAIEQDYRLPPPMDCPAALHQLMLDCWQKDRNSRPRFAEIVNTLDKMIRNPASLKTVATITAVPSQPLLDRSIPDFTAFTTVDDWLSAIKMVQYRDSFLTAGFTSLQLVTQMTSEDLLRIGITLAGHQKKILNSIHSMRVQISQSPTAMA

| Sequence | phosphorylation enrichment |
| --- | --- |
| VSLEAYCKHKY [RXRA_Y403_A398V] | 0.7 |
| ITLPIYTKESE [ANK2_Y1455] | 0.641 |
| ATGLIYIGSHD [AASDH_Y870_T865A] | 0.724 |
| GGMTEYNLVVV [KRAS_Y4_K5N] | 0.642 |
| LRFDSYSSFCN [SLC20A2_Y433_YF] | 0.736 |
| PSRKDYETFQP [CTNND2_Y1154_YF] | 1.04 |
| DLLNSYTENEG [HSPA4L_Y600_I601T] | 0.482 |
| AAQNCYKVTNA [TPI1_Y105_G110A] | 0.355 |
| KKHIPHREHKS [CSNK1G2_Y206_Y206H] | 2.61 |
| SVTCTYTPALN [TP53_Y126_S127T] | 0.633 |
| SILTVYSKDNF [PANK2_Y400_A398T_YF] | 0.549 |
| CDSSGYWTPEE [PAPPA2_Y908] | 0.676 |
| NTYEKYLEEEY [TF_Y669_G671E] | 0.802 |
| EEHIPYTHMNG [INSR_Y1361] | 0.54 |
| ENGPFYTSFPP [GDAP2_Y488_YF] | 2.92 |
| PEYVVYKPQME [CCRL2_Y170_F167Y] | 2.97 |

The sequences below were run on c-Abl (mouse) in the same assay as above.

| Sequence | phosphorylation enrichment |
| --- | --- |
| VSLEAYCKHKY [RXRA_Y403_A398V] | 0.96 |
| ITLPIYTKESE [ANK2_Y1455] | 0.848 |
| ATGLIYIGSHD [AASDH_Y870_T865A] | 0.881 |
| GGMTEYNLVVV [KRAS_Y4_K5N] | 0.758 |
| LRFDSYSSFCN [SLC20A2_Y433_YF] | 0.833 |
| PSRKDYETFQP [CTNND2_Y1154_YF] | 0.907 |
| DLLNSYTENEG [HSPA4L_Y600_I601T] | 0.623 |
| AAQNCYKVTNA [TPI1_Y105_G110A] | 0.466 |
| KKHIPHREHKS [CSNK1G2_Y206_Y206H] | 4.03 |
| SVTCTYTPALN [TP53_Y126_S127T] | 0.88 |
| SILTVYSKDNF [PANK2_Y400_A398T_YF] | 0.456 |
| CDSSGYWTPEE [PAPPA2_Y908] | 0.727 |
| NTYEKYLEEEY [TF_Y669_G671E] | 1.27 |
| EEHIPYTHMNG [INSR_Y1361] | 0.555 |
| ENGPFYTSFPP [GDAP2_Y488_YF] | 8.39 |
| PEYVVYKPQME [CCRL2_Y170_F167Y] | 9.5 |

These sequences were tested on AncSZ in the same assay as above.

| Sequence | phosphorylation enrichment |
| --- | --- |
| VSLEAYCKHKY [RXRA_Y403_A398V] | 1.01 |
| ITLPIYTKESE [ANK2_Y1455] | 0.961 |
| ATGLIYIGSHD [AASDH_Y870_T865A] | 0.827 |
| GGMTEYNLVVV [KRAS_Y4_K5N] | 1.21 |
| LRFDSYSSFCN [SLC20A2_Y433_YF] | 1.54 |
| PSRKDYETFQP [CTNND2_Y1154_YF] | 1.22 |
| DLLNSYTENEG [HSPA4L_Y600_I601T] | 1.17 |
| AAQNCYKVTNA [TPI1_Y105_G110A] | 0.522 |
| KKHIPHREHKS [CSNK1G2_Y206_Y206H] | 2.89 |
| SVTCTYTPALN [TP53_Y126_S127T] | 1.43 |
| SILTVYSKDNF [PANK2_Y400_A398T_YF] | 0.814 |
| CDSSGYWTPEE [PAPPA2_Y908] | 1.25 |
| NTYEKYLEEEY [TF_Y669_G671E] | 1.6 |
| EEHIPYTHMNG [INSR_Y1361] | 0.797 |
| ENGPFYTSFPP [GDAP2_Y488_YF] | 1.12 |
| PEYVVYKPQME [CCRL2_Y170_F167Y] | 6.34 |

What follows are sequences tested against MERTK (UniProt Q12866) in the same assay as above.
MERTK, sequence (Q12866 whole entry, looked up): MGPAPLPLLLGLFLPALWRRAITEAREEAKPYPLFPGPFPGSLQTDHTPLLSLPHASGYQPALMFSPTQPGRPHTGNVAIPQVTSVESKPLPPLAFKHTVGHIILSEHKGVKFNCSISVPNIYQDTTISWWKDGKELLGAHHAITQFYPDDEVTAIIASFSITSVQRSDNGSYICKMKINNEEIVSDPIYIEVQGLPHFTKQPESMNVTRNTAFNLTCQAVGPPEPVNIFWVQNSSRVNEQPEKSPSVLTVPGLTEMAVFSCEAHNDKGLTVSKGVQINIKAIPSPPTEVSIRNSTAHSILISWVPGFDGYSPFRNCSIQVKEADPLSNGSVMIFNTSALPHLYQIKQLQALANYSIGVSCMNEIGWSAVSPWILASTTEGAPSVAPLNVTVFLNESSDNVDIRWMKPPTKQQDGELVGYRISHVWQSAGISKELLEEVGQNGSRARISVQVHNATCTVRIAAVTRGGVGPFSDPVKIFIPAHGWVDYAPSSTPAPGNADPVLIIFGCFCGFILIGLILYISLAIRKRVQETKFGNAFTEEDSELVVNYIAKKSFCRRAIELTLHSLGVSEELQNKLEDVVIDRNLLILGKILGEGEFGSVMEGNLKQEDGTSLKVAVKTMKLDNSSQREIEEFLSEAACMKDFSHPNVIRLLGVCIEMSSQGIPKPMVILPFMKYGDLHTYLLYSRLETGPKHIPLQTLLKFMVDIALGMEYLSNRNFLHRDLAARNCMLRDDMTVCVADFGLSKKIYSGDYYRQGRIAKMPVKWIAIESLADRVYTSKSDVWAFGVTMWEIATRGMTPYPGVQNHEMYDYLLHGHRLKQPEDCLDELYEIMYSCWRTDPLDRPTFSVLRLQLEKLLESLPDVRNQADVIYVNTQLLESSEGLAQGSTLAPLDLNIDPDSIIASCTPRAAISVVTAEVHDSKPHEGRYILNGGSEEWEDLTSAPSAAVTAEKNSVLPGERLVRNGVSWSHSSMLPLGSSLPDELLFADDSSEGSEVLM

| Sequence | phosphorylation enrichment |
| --- | --- |
| VSLEAYCKHKY [RXRA_Y403_A398V] | 0.559 |
| ITLPIYTKESE [ANK2_Y1455] | 1.75 |
| ATGLIYIGSHD [AASDH_Y870_T865A] | 0.543 |
| GGMTEYNLVVV [KRAS_Y4_K5N] | 0.398 |
| LRFDSYSSFCN [SLC20A2_Y433_YF] | 0.479 |
| PSRKDYETFQP [CTNND2_Y1154_YF] | 0.572 |
| DLLNSYTENEG [HSPA4L_Y600_I601T] | 0.492 |
| AAQNCYKVTNA [TPI1_Y105_G110A] | 0.62 |
| KKHIPHREHKS [CSNK1G2_Y206_Y206H] | 1.42 |
| SVTCTYTPALN [TP53_Y126_S127T] | 0.404 |
| SILTVYSKDNF [PANK2_Y400_A398T_YF] | 0.454 |
| CDSSGYWTPEE [PAPPA2_Y908] | 0.494 |
| NTYEKYLEEEY [TF_Y669_G671E] | 0.563 |
| EEHIPYTHMNG [INSR_Y1361] | 0.403 |
| ENGPFYTSFPP [GDAP2_Y488_YF] | 13.1 |
| PEYVVYKPQME [CCRL2_Y170_F167Y] | 1.14 |

These sequences were tested on c-Src in the same assay as above.

| Sequence | phosphorylation enrichment |
| --- | --- |
| VSLEAYCKHKY [RXRA_Y403_A398V] | 0.46 |
| ITLPIYTKESE [ANK2_Y1455] | 0.974 |
| ATGLIYIGSHD [AASDH_Y870_T865A] | 0.492 |
| GGMTEYNLVVV [KRAS_Y4_K5N] | 0.478 |
| LRFDSYSSFCN [SLC20A2_Y433_YF] | 0.642 |
| PSRKDYETFQP [CTNND2_Y1154_YF] | 0.737 |
| DLLNSYTENEG [HSPA4L_Y600_I601T] | 0.616 |
| AAQNCYKVTNA [TPI1_Y105_G110A] | 0.44 |
| KKHIPHREHKS [CSNK1G2_Y206_Y206H] | 1.53 |
| SVTCTYTPALN [TP53_Y126_S127T] | 0.455 |
| SILTVYSKDNF [PANK2_Y400_A398T_YF] | 0.6 |
| CDSSGYWTPEE [PAPPA2_Y908] | 0.508 |
| NTYEKYLEEEY [TF_Y669_G671E] | 0.9 |
| EEHIPYTHMNG [INSR_Y1361] | 0.371 |
| ENGPFYTSFPP [GDAP2_Y488_YF] | 6.71 |
| PEYVVYKPQME [CCRL2_Y170_F167Y] | 9.4 |
